Reference: the MegaScale stability set (Tsuboyama et al. 2023)

B1: 6NMW (parent)
chain: QGDIVVALYPYDGIHPDDLSFKKGEKMKVLEEHGEWWKAKSLLTKKEGFIPSNYVAKLN

Variants of: B1
Assay: folding stability dG (cDNA display proteolysis); higher = more stable
Conditions: PBS, room temperature

Folding stability dG [kcal/mol], by site and new letter:
W36: Q 2.51 | R 4.45 | E 1.14 | F 3.29 | G 0.695 | D 0.269 | V 3.3 | C 3.06 | S 2.15 | Y 3.49 | P 1.14 | A 1.68 | T 2.87 | L 2.85 | N 2.13 | I 3.52 | M 3.29 | H 2.3 | K 3.49
S41: E -0.037 | Q 0.463 | I 1.28 | Y 0.369 | M 1.38 | V 1.06 | C 1.48 | H 2.95 | W 0.288 | D 0.362 | F -0.464 | T 0.669 | L 1.15 | K 1.64 | G -0.006 | R 0.201 | A 1.22 | N 1.9
K28: T 3.27 | V 4.85 | R 4.26 | S 2.77 | G 1.31 | N 2.02 | F 3.91 | H 3.02 | C 3.9 | A 3.21 | M 4.6 | Y 4.2 | E 4.07 | W 4.43 | D 1.21
W37: C 3.04 | K 3.8 | H 2.59 | Q 1.99 | S 2.26 | R 2.28 | N 1.19 | M 4.7 | V 3.04 | T 2.67 | I 3.96 | G -0.016 | D 0.168 | A 2.24 | E -0.118 | P 1.7 | F 4.79
E32: D 4.38 | A 4.31 | K 4.72 | R 4.29 | N 3.83 | W 3.48 | P 2.54 | L 4.21 | V 4.48 | M 4.65 | F 4.1 | C 4.44 | I 4.6 | G 3.33 | Y 4.42 | H 3.54 | Q 4.09 | T 3.95
A39: T 1.32 | S 0.729 | V 4.31 | C 4.07 | M 1.64 | I 1.95 | G 1.44 | F -0.401 | W -0.54 | L 1.97 | Y -0.228
L30: C 2.42 | T 2.04 | A 1.01 | Q 1.56 | R 0.866 | W 1.5 | S 1.5 | M 2.85 | V 2.34 | D 0.53 | G 0.263 | K 0.883 | N 0.519 | Y 2.27 | F 2.37 | E 1.21 | H 0.943 | I 3.29
E35: K 3.94 | T 3.73 | P 3.64 | I 3.97 | N 4.01 | Y 4.96 | C 4.75 | G 3.14 | L 4.23 | S 3.82 | Q 3.92 | A 4.01 | M 4.06 | W 4.11 | H 4.61 | V 3.94 | R 3.59
L43: R 3.66 | G 2.02 | Q 2.88 | E 3.22 | V 3.56 | D 3.14 | A 3.2 | Y 3.26 | K 3.17 | I 3.26 | N 2.4 | P 0.475 | F 3.03 | W 4.56 | C 3.7 | H 3.1 | S 3.38 | M 3.25
E31: W 3.2 | P -0.549 | H 2.63 | Y 3.07 | L 2.67 | F 3.14 | V 2.64 | R 2.56 | T 2.69 | C 4.09 | I 2.98 | Q 3.11 | G 2.77 | D 3.05 | A 3.46 | K 2.67 | M 3.05
K46: L 3.56 | I 2.34 | M 3.47 | R 3.66 | S 2.48 | F 2.48 | C 3.37 | N 3.02 | H 2.64 | A 3.05 | E 2.94 | G 2.14 | D 2.47
K26: T 3.12 | H 4.3 | S 2.3 | Q 3.56 | M 4.51 | Y 4.84 | I 4.68 | N 2.15 | W 4.72 | V 4.19 | P 2.39
T44: K 0.416 | C 0.909 | V 0.057 | N 2.06 | M 0.443 | A 0.515 | Q 1.26 | L 0.417 | I -0.332 | W 0.672 | D 1.14 | Y 0.599 | F 0.599 | S 3.08 | G 0.839 | H 0.98 | E 0.228 | R 0.922
K45: A 3.94 | Q 4.25 | E 4.09 | L 4.49 | F 4.45 | Y 3.97 | I 1.8 | R 3.65 | T 3.1 | N 4.22 | S 3.89 | D 4.09 | M 4.29 | V 1.61 | W 4.01 | H 4.6 | P 0.596
K40: Y 3.79 | Q 3.88 | R 4.32 | V 4.24 | G 1.1 | I 3.96 | C 3.71 | E 2.86 | F 3.63 | N 1.04 | S 2.8 | T 2.76 | W 3.24 | A 3 | L 3.84 | M 4.1
V29: R 0.08 | T 0.988 | Y 0.219 | M 1.93 | W -0.028 | A 0.496 | F 1.05 | L 4.64 | P 0.224 | K 1.25 | S -0.702 | Q 0.108 | C 1.16
K38: P 0.337 | C 3.63 | S 1.83 | N 1.45 | M 3.87 | A 1.72 | G 0.033 | V 3.34 | Q 2.39 | E 1.49 | F 4.92 | I 3.44 | H 2.92 | T 2.18 | R 4.06
L42: G -0.156 | R 0.165 | E 1.82 | V 1.88 | Y 2.14 | F 2.83 | T 1.47 | S 0.699 | K 0.463 | W 1.06 | H 1.02 | N 0.819 | I 2.51 | D 0.832 | A 0.615 | M 3.09 | P -0.897 | Q 1.32 | C 4.16
M27: W -0.174 | C 0.54 | H -0.396 | Q -0.878 | V 0.125 | Y -0.162 | F 3.72 | I 1.74
G34: N 2.22 | L 1.52 | H 1.67 | C 2.75 | R 1.65 | Y 1.45 | P 1.5 | T 1.48 | I 1.4 | E 1.86 | K 1.84 | Q 1.74 | S 2 | D 1.96 | A 2.02 | W 1.24 | M 1.59 | F 1.15 | V 1.41
H33: A 3.01 | T 3.12 | K 3.38 | G 3.24 | C 4.43 | I 3.23 | Q 3.06 | M 3.29 | L 3.41 | F 3.74 | Y 3.6 | W 3.34 | D 2.75 | P 1.43 | N 3.62 | V 3.16 | R 3.41
